Data from CN111018979A (DONGGUAN PENGZHI BIOTECHNOLOGY CO LTD, dated 2020).

Molecular target: T1, cTnI质控品重组蛋白 (recombinant cardiac troponin I quality-control antigen, made in-house) (human, UniProt P19429 1-210, limits assumed)
T1 construct: The assay paragraph says only 'cTnI质控品重组蛋白(公司自产重组抗原)', so the limits of the construct are unknown; also called 心肌肌钙蛋白I; cTnI质控品重组抗原
Test: BLI, antibody held on AMC sensor, cTnI recombinant protein in solution in a dilution series

T1 sequence (P19429 whole entry): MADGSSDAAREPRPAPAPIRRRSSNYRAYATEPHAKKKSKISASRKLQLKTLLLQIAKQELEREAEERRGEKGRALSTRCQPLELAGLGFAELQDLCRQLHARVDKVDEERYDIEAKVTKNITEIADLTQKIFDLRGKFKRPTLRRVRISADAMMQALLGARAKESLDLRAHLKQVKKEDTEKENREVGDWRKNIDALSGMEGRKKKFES

B1: Anti-cTnI 2E7 recombinant antibody (sample 1 of Example 1) (antibody, V domains shown)
VH: QVQLQQPGAELVRPGASVKLSCKASDYTFSSYWMQWVKQRPGQGLEWIGMLDPSDSETHYNQLFKDKATLTVDKSSNTAYMQLSSLTSEDSAVYFCAFLTSLGDYWGQGTTLTVSS
VL: DVLMTQTPLSLPVSLGDQASISCRSSQSIIHSQGNSYLEWYLQKPGQSPKLLLYKVSQRLSGVPDRFSGSGSGTDFTLKISRVEAEDLGVYYCFNGSHLPITFGAGTKLELK
A Kd of 0.0648 µM, a koff of 0.0027 s⁻¹ and a kon of 41700 M⁻¹ s⁻¹ were found for B1 in this work.
